In paper PMC4673829, “Chemical basis for the recognition of trimethyllysine by epigenetic reader proteins” (Nature Communications, 2015):
Ends that are not written are not given here. Me3 = trimethyllysine (Kme3)

T1: TAF3 PHD domain (for ITC)
T1 chain: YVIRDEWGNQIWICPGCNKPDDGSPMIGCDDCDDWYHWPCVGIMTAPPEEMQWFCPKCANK

T2: BPTF PHD zinc finger
T2 chain: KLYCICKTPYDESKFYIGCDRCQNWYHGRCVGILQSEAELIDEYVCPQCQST

T3: JMJD2A tudor domains
T3 construct: JMJD2A (KDM4A), tudor domains; source: E. coli Rosetta BL21 DE3 pLysS, purified (Ni-NTA, TEV protease, Superdex 75)
T3 sequence (O75164 whole entry, species assumed, looked up): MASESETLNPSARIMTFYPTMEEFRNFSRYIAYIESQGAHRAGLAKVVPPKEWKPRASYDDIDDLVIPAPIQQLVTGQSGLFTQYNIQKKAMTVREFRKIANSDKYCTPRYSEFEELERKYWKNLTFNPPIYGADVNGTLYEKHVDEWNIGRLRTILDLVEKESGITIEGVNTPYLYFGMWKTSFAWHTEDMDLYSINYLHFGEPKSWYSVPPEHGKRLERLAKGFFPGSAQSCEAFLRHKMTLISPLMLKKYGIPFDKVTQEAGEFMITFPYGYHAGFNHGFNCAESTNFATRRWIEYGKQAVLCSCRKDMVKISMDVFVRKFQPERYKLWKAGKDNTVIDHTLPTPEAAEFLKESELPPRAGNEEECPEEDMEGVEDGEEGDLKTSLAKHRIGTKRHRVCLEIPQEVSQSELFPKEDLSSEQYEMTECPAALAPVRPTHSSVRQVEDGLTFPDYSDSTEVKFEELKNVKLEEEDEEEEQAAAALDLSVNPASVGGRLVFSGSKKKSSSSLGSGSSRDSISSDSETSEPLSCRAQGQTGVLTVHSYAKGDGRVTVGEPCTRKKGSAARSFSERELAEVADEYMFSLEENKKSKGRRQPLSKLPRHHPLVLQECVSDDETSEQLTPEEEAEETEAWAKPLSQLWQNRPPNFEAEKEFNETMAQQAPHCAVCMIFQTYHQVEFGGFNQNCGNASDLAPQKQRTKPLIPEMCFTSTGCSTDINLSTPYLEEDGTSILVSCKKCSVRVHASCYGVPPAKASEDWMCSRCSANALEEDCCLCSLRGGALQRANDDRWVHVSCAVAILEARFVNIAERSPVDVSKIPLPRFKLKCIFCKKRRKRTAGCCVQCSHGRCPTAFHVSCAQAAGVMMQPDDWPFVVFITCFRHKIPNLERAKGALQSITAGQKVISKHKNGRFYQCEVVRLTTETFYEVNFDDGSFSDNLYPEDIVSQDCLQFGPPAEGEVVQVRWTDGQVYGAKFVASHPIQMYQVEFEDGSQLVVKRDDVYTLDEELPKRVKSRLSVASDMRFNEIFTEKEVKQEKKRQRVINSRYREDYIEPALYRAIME

B1: 10-mer H3K4me3 histone peptide (peptide)
peptide: ARTK(Me3)QTARKS-OH
notes: histone H3, residues 1-10, with Kme3 at the fourth position; Peptides appear as TFA salts; also called H3(1-10)K4me3; source: synthetic peptide (solid-phase synthesis, Fmoc chemistry, preparative HPLC)
B2: 10-mer H3C4me3 histone peptide (peptide)
chain: ARTXQTARKS
modifications: Cme3 (neutral carba analogue of trimethyllysine, tert-butyl in place of trimethylammonium) at position 4; carboxylic acid at the C terminus
B3: 10-mer H3G4 histone peptide (peptide)
peptide: ARTGQTARKS-OH
notes: source: synthetic peptide (solid-phase synthesis, Fmoc chemistry, preparative HPLC)

Tests used:
Conditions in all cases: both partners purified
[1] = target: T1, TAF3 PHD domain (for ITC); test: ITC; 350–600 μM H3K4me3 or H3C4me3 peptide titrated to 25–40 μM protein (JMJD2A–H3C4me3: 3 mM peptide to 200 μM JMJD2A); 19 injections; Microcal Auto-iTC200; one set of sites model; 5–7 repeats
BPTF PHD zinc finger = target: T2, BPTF PHD zinc finger; test: as above
[2] = target: T4, SGF29 tandem tudor domain (for ITC); test: as above
T4 construct: SGF29, tandem tudor domain; the crystallisation construct is residues 115-293 of human SGF29; source: E. coli Rosetta BL21 DE3 pLysS, purified (Ni-NTA, TEV protease, Superdex 75)
T4 sequence (Q96ES7 whole entry, the tested form may be a part): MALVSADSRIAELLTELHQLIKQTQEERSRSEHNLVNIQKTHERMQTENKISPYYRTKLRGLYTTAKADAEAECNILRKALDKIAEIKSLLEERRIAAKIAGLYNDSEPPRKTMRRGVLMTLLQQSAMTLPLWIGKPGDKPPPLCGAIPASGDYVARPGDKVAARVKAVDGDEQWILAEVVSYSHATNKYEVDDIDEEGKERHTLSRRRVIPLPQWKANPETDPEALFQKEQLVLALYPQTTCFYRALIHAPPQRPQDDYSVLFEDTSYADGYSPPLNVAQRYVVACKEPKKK

[3] = target: T5, JARID1A PHD3 domain (for ITC); test: as above
T5 construct: JARID1A (KDM5A), PHD3 domain; cleavage of the tag is told only for JMJD2A, SGF29 and TAF3; also called PHD zinc finger of JARID1A; source: E. coli Rosetta BL21 DE3 pLysS, purified (Ni-NTA or glutathione sepharose beads, Superdex 75)

JMJD2A tudor domains = target: T3, JMJD2A tudor domains; test: as above
[4] = target: T1, TAF3 PHD domain (for ITC); test: ITC; H3G4 (5 mM) titrated to JARID1A (330 μM), H3G4 (3 mM) titrated to TAF3 (200 μM); 19 injections; Microcal Auto-iTC200; one set of sites model

| Binder | Kd [1] | dH [1] | Kd (BPTF PHD zinc finger) | dH (BPTF PHD zinc finger) | Kd [2] | dH [2] | Kd [3] | dH [3] | Kd (JMJD2A tudor domains) | dH (JMJD2A tudor domains) | Kd [4] | dH [4] |
| --- | --- | --- | --- | --- | --- | --- | --- | --- | --- | --- | --- | --- |
| B1 | 24 nM | -10.9 ± 0.1 kcal/mol | 490 nM | -13.1 ± 0.1 kcal/mol |  |  |  |  |  |  |  |  |
| B2 | 790 nM | -5.2 ± 0.1 kcal/mol | 760 nM | -10 ± 0.2 kcal/mol | 1400 nM | -7.9 ± 0.1 kcal/mol | 340 nM | -7.4 ± 0.1 kcal/mol | 16000 nM | -8.1 ± 0.1 kcal/mol |  |  |
| B3 |  |  |  |  |  |  |  |  |  |  | 36000 nM | -2.5 kcal/mol |
